Here are results for three molecules from patent US20120231006A1 (Amgen, published 2012).

For assay [1], the target named is T1, mOrai1-hOrai1 ECL2 chimeric protein (human/mouse chimera, UniProt Q8BWG9 1-304 (mouse entry)).
T1 construct: mouse Orai1 with human ECL2; also called Ch
Nature of the assay: FACS, 293EBNA transfectants [D00028 FIG. 16B]. From the text: (§1) FIG. 16A-D illustrates the results of FACS analysis showing binding to the indicated mOrai1-hOrai1 ECL2 chimeric mutants expressed on the surface of HEK-293-EBNA cells. Transfected cells were stained first with recombinant monoclonal antibodies then counter-stained with a secondary phycoerythrin-labeled goat (“Gt”) anti-human (“Hu”) IgG F(ab′)₂ antibody fragment and visualized using FACS. In FIG. 16B and FIG. 16D, The values of Relative Fluorescence Intensity as Percent of Control (RFI-POC) are calculated from the relative fluorescence intensity geometric mean (Geo Mean). The geometric mean is an average calculated by multiplying a series of numbers and taking the nth root where n is the number of numbers in the series. It is a statistical average of a set of transformed numbers often used to represent a central tendency in a highly variable data set that minimizes the effects of extreme values.
(§2) Table 11A and Table 11B feature a schematic representation of the POC data from FIG. 16B and FIG. 16D, respectively, where the binding results are recorded as (+++) denoting binding POC from 40% to 100%, (++) for POC of 5% to less than 40%, (+) for POC from 1% to less than 5% and (−) as lack of binding with POC less than 1%.
(In general: In flow cytometry, cells or beads pass a laser one at a time.)

In assay [2] the target is T2, mOrai1-hOrai1 ECL2 (VIV) protein (human/mouse chimera, UniProt Q8BWG9 1-304 (mouse entry)).
T2 construct: also called Ch
As to the kind of experiment: FACS, 293EBNA transfectants [D00028 FIG. 16B].
From the text: as §1, §2

Assay [3] deals with T3, mOrai1-hOrai1 ECL2 (HSD) protein (human/mouse chimera, UniProt Q8BWG9 1-304 (mouse entry)).
T3 construct: also called Ch
As to the kind of experiment: FACS, 293EBNA transfectants [D00028 FIG. 16B].
From the text: as §1, §2

The target in assay [4] is T4, hOrai1-mOrai1 ECL2 (…) protein (human/mouse chimera, UniProt Q96D31 1-301).
T4 construct: also called Ch
As to the kind of experiment: FACS, 293EBNA transfectants [D00032 FIG. 17B]. As for the experimental part: (§3) FACS binding analysis. Transfected 293EBNA cells transiently expressed hOrai1-mOrai1 ECL2 or mOrai1-hOrai1 ECL2 chimera. The transfected cells were harvested at 48 hours post-transfection. Cells transfected with pcDNA3.1 were used as negative controls. Cells were washed once with ice-cold 1×PBS, resuspended in ice-cold FACS buffer (1×D-PBS+2% goat serum), and 2×10⁵ cells in 100 μL were stained per antibody combination. All antibody incubation steps were performed on ice for 1 hour. […] Next, the unlabelled antibody was detected using goat F(ab′)₂ anti-mouse or anti-human IgG-phycoerythrin (IgG-PE), followed by a wash with 200 μL of ice-cold FACS buffer before flow cytometry analysis. Unstained cells and cells stained with detecting antibodies were used as negative controls. The values of relative level of fluorescence were calculated using FCS Express (De Novo Software) and mean values were calculated using log-transformed data (geometric mean). […]
(§4) Representative results of FACS analysis of binding to the mutant hOrai1-mOrai1 ECL2 chimera described above by exemplary anti-hOrai1 antibodies of the present invention are shown in FIG. 17A-D, Table 10A and Table 10B below. Table 10A (Campaign 1) and Table 10B (Campaign 2) show the gain in binding ability of exemplary monoclonal antibodies to hOrai 1-mOrai 1 ECL2 chimera mutants as determined by FACS.

For assay [5], the target named is T5, hOrai1-mOrai1 ECL2 (RPTSKPPA) protein (human/mouse chimera, UniProt Q96D31 1-301).
T5 construct: also called Ch
As to the kind of experiment: FACS, 293EBNA transfectants [D00032 FIG. 17B]. On the procedure:
as §3, §4

For the next assay, the target named is cynomolgus Orai1 (cynomolgus monkey, UniProt Q96D31 1-301 (human entry)). Nature of the assay: cell-based or functional assay.
In assay [6] the target is T6, mOrai1-hOrai1 ECL2 (…) protein (human/mouse chimera, UniProt Q8BWG9 1-304 (mouse entry)).
T6 construct: also called Ch
Nature of the assay: FACS, 293EBNA, RFI-POC grade. Also noted: concentration or dose not given beside the values. In short, it runs like this: (§5)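 HEK-293-EBNA cells expressing mOrai1-hOrai1 ECL2 chimeric mutants stained with recombinant monoclonal antibodies, then PE-labelled goat anti-human IgG F(ab′)2, and analysed by FACS. RFI-POC derived from geometric mean fluorescence; graded +++ (40–100%), ++ (5–<40%), + (1–<5%), − (<1%).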

Assay [7] has as its target T7, mOrai1-hOrai1 ECL2 (AESVIV) protein (human/mouse chimera, UniProt Q8BWG9 1-304 (mouse entry)).
T7 construct: also called Ch
As to the kind of experiment: FACS, 293EBNA, RFI-POC grade. On the set-up: concentration or dose not given beside the values. In short, it runs like this: as §5

Chain of cynomolgus Orai1 (Q96D31 other isoform, or with tags, fused parts or gaps): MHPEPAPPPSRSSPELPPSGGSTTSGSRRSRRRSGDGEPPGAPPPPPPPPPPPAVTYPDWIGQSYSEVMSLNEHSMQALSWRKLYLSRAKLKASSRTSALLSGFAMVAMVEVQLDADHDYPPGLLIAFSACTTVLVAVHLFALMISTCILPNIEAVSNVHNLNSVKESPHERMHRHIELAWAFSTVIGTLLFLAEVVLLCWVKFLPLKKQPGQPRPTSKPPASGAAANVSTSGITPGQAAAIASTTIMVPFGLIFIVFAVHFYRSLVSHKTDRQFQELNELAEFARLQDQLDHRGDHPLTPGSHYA
T3 sequence (Q8BWG9 other isoform, or with tags, fused parts or gaps): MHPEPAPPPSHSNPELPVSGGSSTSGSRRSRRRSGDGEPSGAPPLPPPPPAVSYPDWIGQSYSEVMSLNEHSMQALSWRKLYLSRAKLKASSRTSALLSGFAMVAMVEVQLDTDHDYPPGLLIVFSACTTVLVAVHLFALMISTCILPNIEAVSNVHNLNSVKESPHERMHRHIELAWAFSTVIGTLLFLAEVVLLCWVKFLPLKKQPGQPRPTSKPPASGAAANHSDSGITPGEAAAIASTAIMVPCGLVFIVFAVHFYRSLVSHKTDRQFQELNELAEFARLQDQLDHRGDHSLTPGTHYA
T4 sequence (Q96D31 other isoform, or with tags, fused parts or gaps): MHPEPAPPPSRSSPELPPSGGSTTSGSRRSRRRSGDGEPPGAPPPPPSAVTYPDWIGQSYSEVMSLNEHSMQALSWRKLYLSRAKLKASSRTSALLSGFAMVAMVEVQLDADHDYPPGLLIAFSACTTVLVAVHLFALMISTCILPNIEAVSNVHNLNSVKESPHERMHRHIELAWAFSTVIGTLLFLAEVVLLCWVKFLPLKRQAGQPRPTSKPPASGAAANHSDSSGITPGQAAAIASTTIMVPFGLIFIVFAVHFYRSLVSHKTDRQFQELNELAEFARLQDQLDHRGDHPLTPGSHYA
T5 sequence (Q96D31 other isoform, or with tags, fused parts or gaps): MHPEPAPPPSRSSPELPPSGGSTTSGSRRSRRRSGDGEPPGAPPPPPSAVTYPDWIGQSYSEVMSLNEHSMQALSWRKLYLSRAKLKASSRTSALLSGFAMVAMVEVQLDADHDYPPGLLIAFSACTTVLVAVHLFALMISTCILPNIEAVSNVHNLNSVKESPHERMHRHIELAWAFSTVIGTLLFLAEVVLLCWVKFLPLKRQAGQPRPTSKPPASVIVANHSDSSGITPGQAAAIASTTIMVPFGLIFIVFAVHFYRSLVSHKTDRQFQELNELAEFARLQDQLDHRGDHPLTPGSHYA
T6 sequence (Q8BWG9 other isoform, or with tags, fused parts or gaps): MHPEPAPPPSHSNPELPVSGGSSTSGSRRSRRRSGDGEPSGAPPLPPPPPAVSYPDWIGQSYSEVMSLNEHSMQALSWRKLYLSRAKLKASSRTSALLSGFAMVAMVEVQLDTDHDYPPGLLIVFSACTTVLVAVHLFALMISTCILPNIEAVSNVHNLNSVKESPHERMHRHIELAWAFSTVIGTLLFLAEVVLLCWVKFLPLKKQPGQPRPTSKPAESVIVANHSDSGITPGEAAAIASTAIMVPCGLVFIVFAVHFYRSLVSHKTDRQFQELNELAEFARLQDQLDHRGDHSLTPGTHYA
T1 sequence (Q8BWG9 other isoform, or with tags, fused parts or gaps mutant): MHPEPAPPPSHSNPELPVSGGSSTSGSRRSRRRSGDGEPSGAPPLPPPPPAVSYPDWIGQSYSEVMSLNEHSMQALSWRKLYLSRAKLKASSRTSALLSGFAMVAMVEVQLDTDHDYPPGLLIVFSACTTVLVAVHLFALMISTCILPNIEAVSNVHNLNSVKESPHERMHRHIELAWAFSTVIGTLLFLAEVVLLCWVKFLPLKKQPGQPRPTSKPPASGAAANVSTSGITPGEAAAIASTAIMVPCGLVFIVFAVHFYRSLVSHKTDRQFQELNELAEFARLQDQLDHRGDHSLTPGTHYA
T7 sequence (Q8BWG9 other isoform, or with tags, fused parts or gaps): as the sequence (Q8BWG9 other isoform, or with tags, fused parts or gaps mutant) above, with P218A, A219E, G221V, A222I, A223V counted along it
T2 sequence (Q8BWG9 other isoform, or with tags, fused parts or gaps): as the sequence (Q8BWG9 other isoform, or with tags, fused parts or gaps mutant) above, with G221V, A222I, A223V counted along it

B1: mAb 2B4.1 (antibody, human IgG2, lambda, V domains shown)
VH: QVQLVQSGAEVKKPGASVKVSCKASGYTFTDYYMHWVRQAPGQGLEWMGWINPNSGGTNYVQKFQDRVTMTRDTSITTAYMELTRLRSDDTAVYYCAREEGDYGMDVWGQGTTVTVSS
VL: QSVLTQPPSVSGAPGQRVTISCTGSNSNIGTGYDVHWYQKLPGTAPRLLIYSHFNRPSGVPDRFSGSTSGTSASLAITGLQAEDEADYYCQSYDSSLSGSVFGGGTKLTVLG
B1: the binding result in assay [1], in assay [2], in assay [3], in assay [4] and in assay [5] was “binds” in each case.

B2: mAb 2C1.1 (antibody, human IgG2, lambda, V domains shown)
VH: QVQLQQWGAGLLKPSETLSLTCAVYGGSFSGYYWSWIRQPPGKGLEWIGEIDHSGSTNYNPALKSRLTISVDTSKNQFSLKLSSVTAADTAVYYCARAGSGGYEDWFDPWGQGTLVTVSS
VL: QSVLTQPPSVSGAPGQRVTISCTGSSSNIGAGYNVHWYQQFPRTDPKLLIYVYNIRPSGVPDRFSGSRSGTSASLAITGLQTEDEADYYCQSYDSSLSGVVFGGGTKLTVLG
notes: fully human IgG2 lambda, Campaign 1; tested hybridoma-purified and recombinant; also called anti-hOrai1 mAb 2C1.1
On to B2, for which, in the assay with cynomolgus Orai1, the “IC50 IL-4 release, cynomolgus whole blood, Cyno # 1” value was 0.921 nM; the “IC50 IL-4 release, cynomolgus whole blood, Cyno # 2” value worked out at 6.34 nM; the “IC50 IL-4 release, cynomolgus whole blood, Cyno # 3” value is 0.429 nM; the “IC50 IL-5 release, cynomolgus whole blood, Cyno # 1” value turned out to be 1.56 nM. In the assay with cynomolgus Orai1, the “IC50 IL-5 release, cynomolgus whole blood, Cyno # 2” value came out at 15.2 nM; the “IC50 IL-5 release, cynomolgus whole blood, Cyno # 3” value was found to be 0.815 nM; the “IC50 IL-17 release, cynomolgus whole blood, Cyno # 1” value turned out to be 0.939 nM; the “IC50 IL-17 release, cynomolgus whole blood, Cyno # 2” value was determined as 0.95 nM. Also, the “IC50 IL-17 release, cynomolgus whole blood, Cyno # 3” value with cynomolgus Orai1 was found to be 0.32 nM.

B3: mAb 5B1.1 (antibody, human IgG2, lambda, V domains shown)
VH: QVQLVQSGAEVKKPGASVKVSCKASGYTFTDYYINWVRQAPGQGLEWMGWINPNSGGSSYAQKFQGRVTMTRDTSISTAHMELIRLRSDDTAVYYCARERGGIEDWFDPWGQGTLVTVSS
VL: QSVLTQPPSVSGAPGQRVTISCTGSSSNIGAGYDVHWYQQLPGTAPKLLIYGNSNRPSGVPDRFSGSKSGTSASLAITKFQAEDEAVYYCQSYGSGLSGVVFGGGTKLTVLG
notes: fully human IgG2 lambda, Campaign 2; also called mAb 5Bl1.1
For the molecule B3, the “POC (percent of control, FACS Geo Mean relative to binding to Ch. 1)” value in assay [6] and in assay [7] was 1 to 5% throughout.
